Measurements from paper doi:10.1101/2020.07.15.204859.

Molecular target: T1, S. Typhimurium 14028S HNS (STM14_2116) (Salmonella enterica serovar Typhimurium 14028S), P0A1S2
T1 chain: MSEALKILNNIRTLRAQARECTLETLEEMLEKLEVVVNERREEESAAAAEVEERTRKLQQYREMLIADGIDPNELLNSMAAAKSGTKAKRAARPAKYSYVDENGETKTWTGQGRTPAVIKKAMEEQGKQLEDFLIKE
Assay: SEC
Details: remark: other sources report otherwise

B1: S. Typhimurium 14028S HNS (STM14_2116), P0A1S2 1-137 (natural protein)
chain: MSEALKILNNIRTLRAQARECTLETLEEMLEKLEVVVNERREEESAAAAEVEERTRKLQQYREMLIADGIDPNELLNSMAAAKSGTKAKRAARPAKYSYVDENGETKTWTGQGRTPAVIKKAMEEQGKQLEDFLIKE
stoichiometry N: 2
